Results from paper PMC11952658, “The zinc finger of DNA Ligase 3α binds to nucleosomes via an arginine anchor” (Research Square, 2025).

Molecular target: Cy3-labeled human histone nucleosome core particle reconstituted on the Widom 601 sequence (human, Cy3-maleimide on K119C)
Assay: single-molecule fluorescence imaging on a tethered nucleosome (SMADNE, LUMICKS C-trap); Cy3-labeled undamaged 601 NCP ligated into 6 kb biotinylated DNA handles and tethered between optically trapped streptavidin beads, 4–5 pN tension; tagged proteins from nuclear extract; lifetimes from CRTD; KD from koff, apparent kon and protein concentration
Conditions: one partner purified

B1: Halo 635-ZnF-BRCT LIG3α (domain or fragment)
chain: MAEQRFCVDYAKRGTAGCKKCKEKIVKGVCRIGKVVPNPFSESGGDMKEWYHIKCMFEKLERARATTKKIEDLTELEGWEELEDNEKEQITQHIADLSSKAAGTPKKKAVVQAKLTTTGQVTSPVKGASFVTSTNPRKFSGFSAKPNNSGEAPSSPTPKRSLSSSKCDPEKADFTVVAGDEGSSTTGGSSEENKGPSGSAVSRKAPSKPSASTKKAEGKLSNSNSKDGNMQTAKPSAMKVGEKLATKSSPVKVGEKRKAADETLCQTKVLLDIFTGVRLYLPPSTPDFSRLRRYFVAFDGDLVQEFDMTSATHVLGSRDKNPAAQQVSPEWIWACIRKRRLVAPC
modifications: Janelia Fluor 635 HaloTag ligand on the HaloTag
Kd: 1.1 ± 0.3 nM
